Test results as given in the supplement of paper PMC12455559.

assay: purified protein yield per well (BCA); higher = higher soluble expression
Description: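 Candidate PET hydrolases were expressed in E. coli C41(DE3) in 2 mL autoinduction cultures in 24-deep-well plates, Ni-bead purified and released by SUMO protease cleavage on an OT-2 robot. Yield per well was measured by BCA; values below 25 ug (0.1 mg/mL) are below the detection threshold. Melting temperature was measured by differential scanning fluorimetry with Sypro Orange, ramping from 25 C at 0.3 C/step.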

Purified protein yield per well, < 25 µg:
AADNPYERGPAPTVSSIEAARGSYAVSQTSVSSLSVSGFGGGTVYYPSSTADGTFGAVVISPGFTAYQSSIAWLGPRLASQGFVVFTIDTNTTLDQPDSRGRQLLAALDYLTKSSSVRGRVDASRLGVMGHSMGGGGSLEAAKSRTSLKAAIPLTGWNADKTWPELRTPTLVVGADGDTVAPVSSHSEPFYQSLPSTLDKAYLELNGATHFTPNSSNTTIAKYSISWLKRFIDNDTRYEQFLCPLPRPSLTIEEYRGNCPHGS [TEP044]
AADNPYERGPDPTEQSVTAIRGPFNVAQTDVSRLAVTGFGGGTIYYPTDTSQGTFGAIAISPGFTAYWSSLSWLGPRLASQGFVVFGIETNTTLDQPAQRGQQLLAALDYLTQRSSVRSRVDASRLAVAGHSMGGGGTLEAAKSRTSLKAAIPIAPWNLDKTWPEVRTPTLIIGGELDSIAPVATHSKPFYSSLSNAPEKAYLELDNASHFFPQISNTTMAKYMISWMKRFIDNDTRYDQFLCPPPRAIGDISDYQDTCPHS [TEP031]
AANPYERGPAPTTAVLEAARGPFATTSAAIARTSSFGGGTVYYPTDTSQGTFGAVAISPGFSATQSSVAWYGPRLASHGFVVVTINTLSGWDDPDSRARQLLAALDYLTNTHAVRTRIDKTRLGVMGHSMGGGGALRASVSRPSLQAAIPLAPWHNTKNWSSDGVPTLIVGAENDTVAPVNQHAEPFYTSITGAPDKAYLELNNAGHSAPSSEGPNVTVGKFSVAWLKRFIDNDTRYEQFLCPAPRPDTRINEYRDTCPHS [TEP084]
AAPAHHAAPAHAAVHHHAPFALRTTVVPRTAVTKFGGGVIYEPRDTGKPVLGAVVITPGFTDTNADEKEYAELVASQGFVAFAIDTLDTGDIPADRATQMLAAVDWLTGSSPVKAEVSPDRVALLGYSFGGGGAMQAAQSRPSIKAVVGMMPFDAPPESDPNATTPAYPRMTTPTLVITGQEDDVADPKYFGKPAYDSIPAGTPKQYLELKGLGHGAGEHMPVPTVRTAVTAFLKRYLDGNSAYGRFICPAPKAVGPISASLSSCPRG [ESM110]
AAPATAPSVQRAAANPHERGPAPTEESITAEEGPFEFETIDVPAGSGDGFNQGTIYAPTDLSQGTFGAIAVSPGFVSPEALISWYGPRLASQGFVVMTIETNTLLDQPAARGDQLLAALDYLTGGDSPVRDRVDTGRLAVTGHSMGGGGTLEAARERPGLRAAVPLAPWNLNSDWSAVRTPTMILGAQNDFIAANGLHSEPFYEGLTSAPEKAYAEIANTGHMSFNTPNDVIAKYTIAWMKRYVDDDTRYERFLCPAPSDDPALVEYRDTCPGG [TEP002]
AAPHASTAHHHAPFAVRTTVVPRTADAKFGGGVIYEPQDTGKPVLGAVVITPGFTDTNADEKEMAELVASQGFVAFAIDTLDVGDLPDQRATEILAAADYLTGQSAVKSQVSAKDLAFLGYSMGGGGTFQAAQARPSVKAAIGLMPFDIPDANDPNATTPSYPKLTTPSLVVTGQKDDVADPEYFGKPIYDSIPVGTPKQYLELTGLGHGAGEHVPAPTIRVAVTAFLKRYLDGNSAYAKYICPAPKVGGPVSASLSSCPQG [ESM176]
AAPPVPQVAASPYERGPAPSEESVTAAEGPFEFETIDVPAGSGDGFNQGTIYAPTDRSQGTFGAIAVSPGFVSPEALVSWYGPRLASQGFVVMTIETNTVLDLPAMRGDQLLAALDYLTGAASPVADRVDPDRLAVMGHSMGGGGTLEAASRRTDLRAAVPLAPWNLTSDWSAVRTPTMILGAQNDFIAANGLHSEPFYEGLTSAPEKAYAELENTGHMSFNTPNDTIAKYTIAWMKRYVDDDARYERFLCPAPSDDPALIEYRDTCPGG [TEP149]
AAPVHHAVTRPVAAHHPVTRPVAGHAPPPSTVDQIVVPATADARFGGGTIFAPHGAGQKVLGSVIVTPGFHGRKSDMAVYGTELAAEGFVVFTIDTRERADLPAQRATEMLAAADYLTGRSAVKGEVSPDRVALLGYSMGGGGTLEAAQERPSIKAALTLMPYDYPPAGDPKAVHPAYPELTVPTLIITGQKDATAIPAKFGKPAYDSIPAGTPKQYLQLTGLGHAAGMGKPTATIRAAITAFLERYLDGDTAYAKDICPAPEVGGPISASTSSCPAG [ESM183]
AAPVHHAVTRPVAAHHPVTRPVPRPVVAHAPQPPAVDQIVVPATADARFGGGTIFAPRGAGQKVLGSVVVTPGFHGRKSDMAVYGTELAAEGFVVFTIDTRDRADLPDQRATEMLAAADYLTGRSAVKGEVSPDRVALLGYSMGGGGTLQAAQERPSIKAALTLMPYDYPPAGDPKAVHPAYPELTVPTLIITGQKDATAIPAKFGKPAYDSIPAGTPKQYLQLTGLGHAAGMGKPTATIRAAITAFLERYLDGDTAYAKDICPAPKVGGPISASTSSCGTS [ESM119]
AAPVHHPVTRPAPAHHQPAAAAVDQIVVPAAADARFGGGTIFAPRGAGQKVLGSVVVTPGFHGRKSDMAVYGTELAAEGFVVFTIDTRDRADLPDQRATEMLAAADYLTGRSAVKGEVSPDRVALLGYSMGGGGTLQAAQERPSIKAALTLMPYDYPPAGDPKAVHPAYPELTVPTLIITGQKDATAIPAKFGKPAYDSIPAGTPKQYLQLTGLGHAAGMGKPTVAIRAAVTAFLERYLDGDTAYAKQICPAPKVGGPISASISSCPAG [ESM150]
ADNPFERGPDPSESSIEAYRGAYSVSEQSVSRWVSGFGGGTIHYPTTRSDGTFGAVVVSPGYTGTESSISWLGPRLASQGFVVLTMVTNSIYDYPDSRARQLQAALDYLTSSSSGVADRIDPDRLALMGHSMGGGGTLRAVSENPDIKAAIPMTPWHTDKTWREVTTPTLIFGAENDTVAPHYSHAEPFYDSLPSSLEKVYLELDGASHFAPNYSNTTIAKYSISWLKRFVDDDTRYSQFLCPGPSFWDGDVQTYESTCDF [TEP197]
ADNPHERGPDPTESSIEALRGSYAVSERSVSRWVSGFGGGTIYYPTTTSDGDFGAVVISPGYTGTESTVAWLGPRLASQGFVVLTMATNSIYDQPDSRARQLQAALDYLTASSPVADRIDADRLALMGHSMGGGGTLRAVDDNPDIKAAIPMTPWHPQKDWSSVSTPTLIFAAENDSVARHETHAEPFYESFEQDLPKAYLELDGASHFAPNTSNTTIAKYSISWLKRFVDDDTRYTPFLCPGPSTGWLSDVEKYESSCPF [DP076]
ADNPYERGPAPTNSSIEASRGPFAVSETSVSSLVSGFGGGTIYYPTSTSAGTFGAVAISPGYTGTQSTMAWLGPRLASQGFVIFTIDTNSVYDQPDSRASQLLAALDYLTQQSTVRTRIDSSRLGVMGHSMGGGGTLRAASQRPSLQAAIPLTGWHTTKNWSSVRVPTLVVGAESDSVAPVSSHSEPFYTSLPSTLDKAYLELNNASHFAPNSSNTTIAKYSISWLKRFIDNDTRYEQFLCPAPGRSTLIEEYRDTCPHS [TEP028]
ADNPYERGPAPTNSSIEATRGPFAVSDTRVSSLVSGFGGGTIYYPTSTSSGTFGAVVISPGFTGTQSSIDWLGPRIASQGFVVFTIDTITIYDQPDSRASQLLAALDYLTQRSDVRSRIDASRLGVMGHSMGGGGTLRAAAQRPSLQAAIPLTGWHTTKNWSSVSVPTLVIGAESDSVAPVATHSEPFYTSLPSTLDKAYLELNNASHFAPNLPDTTIAKYSISWLKRFIDNDTRYEQFLCPGPGRSTQVEEYRNTCPNS [TEP025]
ADNPYERGPAPTRASIEAPRGPYAVSQTSVSSLLVSGFGGGTIYYPTSTSDGTFGAVVVTPGFTATESSMAWLGPRLASQGFVVFTIDTLTTLDQPDSRGRQMLAALDYLTERSSARTRIDGTRLGVIGHSMGGGGTLEAAKSRPSLKAAIPLTPWNLDKTWPEVTTPTLVVGADGDTVAPVATHAKPFYSTLPSTTDRAYLELNNATHFAPNISNTTIAKYSVSWLKRFIDDDTRYEQFLCPLPEPDRDIEEYRGTCPLGG [TEP162]
ADNPYERGPDPSWSSIEALRGPYTVDDTSVSRWVSGFGGGTIYYPDTTRDGDFGAAVISPGYTGTQSSIDWLGPRLASQGFVVLTIDTNSVYDQPDSRADQLQAALDYLTGSSDVADRIDPDRLALMGHSMGGGGTLRAVDDDPSIKAAIPMTPWHIKKNWSSVSTPTLIFGAERDSIAPHETHAEPFYDSLSRSLPKAYLELNNASHFAPNSSNTEIASISIAWLKRFVDDDTRYEQFVCPGPSGYAIEKYESSCPF [TEP128]
ADNPYERGPDPTEASIEAPRGPYAVAEKSVSALEATGFGGGTIHYPTSTAEGTFGAVAIAPGYTALQSSVAWLGPRLASQGFVVITIDTHTTVDQPASRGDQLLAALDHLTRRDSVRSRVDSGRLGVMGHSMGGGGSLEAAKDRPSLQAAIPLTGWNLDKTWSEVRVPTMLIGADGDTIAPVATHSQPFYESLPSTLDRAYLELNDAGHFTPNAPDTTIAKYSVSWLKRFIDNDTRYEQFLCPLPRPSRTIDEYRGNCPHTS [TEP143]
ADNPYERGPDPTEQLIESARGPFATAQTRVSSLSVTGFGGGVIYYPTDTSQGTFGAVAISPGFTADWTSLDWLGPRLASHGFVVIGIDTITRLDQPDSRGRQLLAALDYLTQRSSVRSRVDASRLAVAGHSMGGGGSLEAAKSRTSLKAAIPLAPWNLDKTWPEVVTPTMIFGGELDTVAPVSTHAIPFYNSLTNAREKAYLEIDNGSHFFPNVSNTLVAKYMISWLKRYVDNDTRYEQFLCPVPDDRGLSDSRGTCPGS [TEP135]
ADNPYERGPNPTESSIEATRGHYSVSEESVSSLAPGFGGGTIYYPTTRTDGTFGAVAVVPGYTASESSIEWLGARVASQGFVVFTIDTTTRLDQPAQRGDQLLAALDYLTERSDVADRVDPSRLAVMGHSMGGGGTLEAAKDRPSLKAIIPMTPWNLDKTWGDVEVPMLDFGAEYDSIASPASHAKPFYNTHGGEKMYIELNSAGHFAPNSSNTTIAKYSISWLKRWVDNDTRYTQFLCPTPTSWLYIEESASTCGF [TEP142]
ADNPYQRGPDPTERSVTARRGPFAIDEISVNGGIGAGFNRGTIFYPTDRSQGTFGAVAVIPGFLSPESLVRWFGPRLASQGFVVMTLTTNGLTDTPESRSEQLLAALDYLTTRSQVRDRIDPSRLAVMGHSMGGGGSLAAAAKRPTLRAAIPLAPWSLTKNWSNLTVPTLIIGAENDNVAPVAGHSERFYDSMTNVPEKAYLEMAGGNHVDPTAESDLVAKFTISWLKRFVDDDTRYDQFLCPAPRPNRQISEYRDTCPHS [DP029]
ADNPYQRGPDPTLAGVAASRGPFATAQMSVAPGNGFNGGTVYYPTDTSAGTWGAVAIVPGYTALFADEEAWMGPWLSSFGFVVIGIETNSRTDYDAARGTQLLAALDYLTQRSPVRDRVDTSRLSVIGHSMGGGGVVYASEHRPSLKAAVALAPFSPSQNMSTDQVPTMVMAGQNDTVVTPSYLDGLYATMPAAAQSDFVQIAGADHVYYTHPQSTEMRLLIPWLKIFVDNDTRYTQFLCPSLADPSGISIYHSKCPYVPPGGTTSGGTTSGGTTTGGTTTGGTTTGGTTTGGTTTGGTVGGGTTSGGTSGGACTATYTTVNTWSGGFQGEVKVTAGGQPISGWTVRWTLGSGQSISQVWNGAVTTSGSDVSVGNVSYNGSLQPSTSTTFGFLGAGAPTDASLSCTSP [ESM049]
